Reference: patent publication US7598290B2, “Cytotoxic agents comprising new C-2 modified taxanes” (priority 2005, dated 2009)

B1: huC242-taxoid (conjugate, chains of the INN, looked up)
VH: QVQLVQSGAEVKKPGETVKISCKASDYTFTYYGMNWVKQAPGQGLKWMGWIDTTTGEPTYAQKFQGRIAFSLETSASTAYLQIKSLKSEDTATYFCARRGPYNWYFDVWGQGTTVTVSS
VL: DIVMTQSPLSVPVTPGEPVSISCRSSKSLLHSNGNTYLYWFLQRPGQSPQLLIYRMSNLVSGVPDRFSGSGSGTAFTLRISRVEAEDVGVYYCLQHLEYPFTFGPGTKLELK
modifications: taxoid payload conjugate

Tests used:
[1] = test system: human melanoma cells, A-375; test: In vitro potency and specificity, WST-8 assay, antigen negative A-375 cells; assay type: cell-based; conditions: for IC50: A-375 (antigen negative), 4 days incubation, WST-8
Protocol: (§1) In vitro potency and specificity of huC242-Taxoid conjugate. Samples of free taxoid or huC242-Taxoid conjugate were added to a 96-well flat bottomed tissue culture plate and titrated using serial dilutions ranging from 1×10^−12 M to 3×10^−7 M. Human colon tumor cells, COLO 205, or human melanoma cells, A-375, were added to the wells in such a way that there were triplicate samples for each drug concentration for each cell line. The plates were incubated at 37° C. in an atmosphere of 5% CO2 for 4 days.
(§2) At the end of the incubation period, 20 μl of the tetrazolium reagent WST-8 (2-(2-methoxy-nitrophenyl)-3-(4-nitrophenyl)-5-(2,4-disulfophenyl)-2-tetrazolium, monosodium salt]) was added to each well, and the plates were returned to the incubator for 2 hours. The absorbance in each well of the plates was then measured using the Molecular Devices plate reader at 450 nm. Surviving fraction of cells at each concentration of taxoid or conjugate are plotted in FIGS. 2 a,b.

[2] = test system: Human colon tumor cells, COLO 205; test: In vitro potency and specificity, WST-8 assay, antigen positive COLO 205 cells; assay type: cell-based; conditions: COLO 205 (antigen positive), 4 days incubation
Protocol: as §1, §2

Molecule | IC50 ([1]; Homo sapiens, 96 h) [nM] | IC50 ([2]; Homo sapiens, 96 h) [nM] | IC50 [1] [nM] | antigen negative cells less sensitive than COLO 205 ([1]; A-375 versus COLO 205) | IC50 [2] [nM]
CSSC(C)(C)CCC(=O)O[C@H]1C(=O)[C@@]2(C)[C@H]([C@H](OC(=O)c3ccco3)[C@]3(O)C[C@H](OC(=O)[C@H](O)[C@@H](NC(=O)OC(C)(C)C)c4ccco4)C(C)=C1C3(C)C)[C@]1(OC(C)=O)CO[C@@H]1C[C@@H]2O [IGT-16-141, 3′-dephenyl-3′-(2-furyl)-2-debenzoyl-2-(2-furoyl)-10-(4,4-dimethyl-4-methyldithiobutanoyl)-docetaxel] | ~0.8 | ~0.8 |  |  | 
B1 |  |  | 29 | about 94 fold | 0.31
